# Data published in IntAct's records for PubMed 20679240.
# B1: Circadian clock oscillator protein KaiC (Synechococcus elongatus (strain PCC 7942)), Q79PF4 (parent)
# chain: MTSAEMTSPNNNSEHQAIAKMRTMIEGFDDISHGGLPIGRSTLVSGTSGTGKTLFSIQFLYNGIIEFDEPGVFVTFEETPQDIIKNARSFGWDLAKLVDEGKLFILDASPDPEGQEVVGGFDLSALIERINYAIQKYRARRVSIDSVTSVFQQYDASSVVRRELFRLVARLKQIGATTVMTTERIEEYGPIARYGVEEFVSDNVVILRNVLEGERRRRTLEILKLRGTSHMKGEYPFTITDHGINIFPLGAMRLTQRSSNVRVSSGVVRLDEMCGGGFFKDSIILATGATGTGKTLLVSRFVENACANKERAILFAYEESRAQLLRNAYSWGMDFEEMERQNLLKIVCAYPESAGLEDHLQIIKSEINDFKPARIAIDSLSALARGVSNNAFRQFVIGVTGYAKQEEITGLFTNTSDQFMGAHSITDSHISTITDTIILLQYVEIRGEMSRAINVFKMRGSWHDKAIREFMISDKGPDIKDSFRNFERIISGSPTRITVDEKSELSRIVRGVQEKGPES
# partner: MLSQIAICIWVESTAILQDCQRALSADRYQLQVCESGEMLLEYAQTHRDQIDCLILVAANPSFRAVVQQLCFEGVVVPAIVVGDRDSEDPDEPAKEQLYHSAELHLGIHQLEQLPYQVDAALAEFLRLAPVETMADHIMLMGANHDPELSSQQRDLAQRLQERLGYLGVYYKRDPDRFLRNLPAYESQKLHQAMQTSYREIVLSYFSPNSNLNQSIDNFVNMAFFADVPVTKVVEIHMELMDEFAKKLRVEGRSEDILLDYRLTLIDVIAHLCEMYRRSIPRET
# B2: Circadian clock oscillator protein KaiC (Synechococcus elongatus (strain PCC 7942)), Q79PF4 (parent)
# chain: B1 chain
# partner: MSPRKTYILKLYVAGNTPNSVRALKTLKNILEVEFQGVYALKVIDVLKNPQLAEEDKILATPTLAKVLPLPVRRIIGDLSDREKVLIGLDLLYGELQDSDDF
# Variants of: B1
# Conditions: with kaia_syne7 kaiA
row,effect of a mutation on the interaction,Variant
1,decreasing interaction strength,S431A;T432A
2,increasing interaction strength,S431E;T432E

# Variants of: B2
# Conditions: with kaib_syne7 kaiB
row,effect of a mutation on the interaction,Variant
1,disrupting interaction strength,S431D;T432A
2,disrupting interaction strength,S431A;T432A
3,disrupting interaction strength,S431A;T432E
4,disrupting interaction strength,S431A
